Test results published in patent US20250076311A1 (Chugai, published 2025).

T1: cynomolgus monkey FcγRIIIaS extracellular domain with C-terminal His-tag (cynomolgus monkey, UniProt Q8SPW2 21-206 at identity 1.00))
T1 construct: also called cyno FcgRIIIaS; cynoFcγRIIIaS
T1 chain: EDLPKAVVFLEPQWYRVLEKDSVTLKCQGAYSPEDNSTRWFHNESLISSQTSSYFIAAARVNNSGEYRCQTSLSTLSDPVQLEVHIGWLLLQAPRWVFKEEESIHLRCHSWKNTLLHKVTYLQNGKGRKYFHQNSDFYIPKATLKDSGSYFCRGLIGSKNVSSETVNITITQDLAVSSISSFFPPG

T2: human FcγRIIb extracellular domain with C-terminal His-tag (human, UniProt P31994 43-217)
T2 construct: also called human FcgRIIb
T2 sequence: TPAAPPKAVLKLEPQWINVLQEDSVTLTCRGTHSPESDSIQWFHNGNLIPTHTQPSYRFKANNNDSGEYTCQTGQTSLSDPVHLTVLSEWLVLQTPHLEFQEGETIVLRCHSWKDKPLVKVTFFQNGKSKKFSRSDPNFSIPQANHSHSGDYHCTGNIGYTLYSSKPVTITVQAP

T3: cynomolgus monkey FcγRIIa3 extracellular domain with C-terminal His-tag (cynomolgus monkey)
T3 construct: also called cyno FcgRIIa3; cynoFcγRIIa3; not shown: His-tag added to C-terminus
T3 chain: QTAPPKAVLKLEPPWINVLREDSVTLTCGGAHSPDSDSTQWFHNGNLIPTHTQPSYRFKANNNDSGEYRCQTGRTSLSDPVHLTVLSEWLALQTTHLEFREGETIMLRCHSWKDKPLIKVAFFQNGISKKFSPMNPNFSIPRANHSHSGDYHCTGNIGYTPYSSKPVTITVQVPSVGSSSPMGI

T4: human FcγRIIaH extracellular domain with C-terminal His-tag (human, UniProt P12318 34-217)
T4 construct: also called human FcgRIIaH; FcγRIIa (type H); not shown: His-tag added to C-terminus
T4 sequence: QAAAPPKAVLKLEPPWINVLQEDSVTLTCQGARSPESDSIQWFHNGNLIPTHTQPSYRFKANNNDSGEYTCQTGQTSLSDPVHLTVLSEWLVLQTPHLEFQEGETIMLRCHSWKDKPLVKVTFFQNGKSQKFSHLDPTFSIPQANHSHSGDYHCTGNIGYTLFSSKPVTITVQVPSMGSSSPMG

T5: cynomolgus monkey FcγRIIa2 extracellular domain with C-terminal His-tag (cynomolgus monkey)
T5 construct: also called cyno FcgRIIa2; cynoFcγRIIa2; not shown: His-tag added to C-terminus
T5 chain: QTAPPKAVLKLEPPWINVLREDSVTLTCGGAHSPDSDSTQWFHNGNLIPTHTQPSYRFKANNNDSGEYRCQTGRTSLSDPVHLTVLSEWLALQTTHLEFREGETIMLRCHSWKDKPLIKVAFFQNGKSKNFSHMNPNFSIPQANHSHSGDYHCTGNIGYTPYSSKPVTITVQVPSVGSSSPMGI

T6: human FcγRIIb extracellular domain with C-terminal His-tag (human, UniProt P31994 43-217)
T6 construct: also called human FcgRIIb; not shown: His-tag added to C-terminus
T6 sequence: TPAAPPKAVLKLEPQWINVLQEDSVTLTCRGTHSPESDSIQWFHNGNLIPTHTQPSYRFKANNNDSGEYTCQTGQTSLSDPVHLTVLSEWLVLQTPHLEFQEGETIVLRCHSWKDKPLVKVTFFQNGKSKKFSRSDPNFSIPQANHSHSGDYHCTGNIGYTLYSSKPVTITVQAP


Experiments:
[1] = target: T1, cynomolgus monkey FcγRIIIaS …; assay: SPR, KD(parent SG1)/KD(variant)
[2] = target: T2, human FcγRIIb extracellular domain with …; assay: SPR, KD(parent SG1)/KD(variant)
[3] = target: T7, cynomolgus monkey FcγRIIIaS extracellular domain with C-terminal His-tag (cynomolgus monkey, UniProt A3RFZ7 21-206 (rhesus entry)); assay: SPR Biacore, antibody captured, FcgR analyte
T7 construct: also called cyno FcgRIIIaS; cynoFcγRIIIaS; not shown: His-tag added to C-terminus

[4] = target: T3, cynomolgus monkey FcγRIIa3 …; assay: SPR Biacore, antibody captured, FcgR analyte
[5] = target: T4, human FcγRIIaH extracellular domain …; assay: SPR Biacore, antibody captured, FcgR analyte
[6] = target: T5, cynomolgus monkey FcγRIIa2 …; assay: SPR Biacore, antibody captured, FcgR analyte
[7] = target: T6, human FcγRIIb extracellular domain with …; assay: SPR Biacore, antibody captured, FcgR analyte
[8] = target: T8, human FcγRIIIaV extracellular domain with C-terminal His-tag (human, UniProt P08637 17-208); assay: SPR Biacore, antibody captured, FcgR analyte
T8 construct: also called human FcgRIIIaV; not shown: His-tag added to C-terminus
T8 sequence (P08637 17-208 F176V): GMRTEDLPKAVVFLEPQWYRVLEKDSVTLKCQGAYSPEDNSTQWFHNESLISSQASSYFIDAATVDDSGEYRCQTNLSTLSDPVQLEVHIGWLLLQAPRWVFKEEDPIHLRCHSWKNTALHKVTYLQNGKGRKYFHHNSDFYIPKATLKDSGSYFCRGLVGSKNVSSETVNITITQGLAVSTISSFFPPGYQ

Row | KD fold (SG1 = 1) [1] | KD fold (SG1 = 1) [2] | KD fold (SG1 = 1) [3] | Kd [3] | Kd [4] | Kd [5] | KD fold (SG1 = 1) [6] | Kd [6] | Kd [7] | KD fold (SG1 = 1) [5] | KD fold (SG1 = 1) [8] | Binder
1 | 0.07 fold | 5.7 fold | – | – | – | – | – | – | – | – | – | MS1032LO19-SG1071 (antibody, tied to rows r14/r32 by row order only; also called MS103240H795-SG1071; copies: 2 + 2) heavy: QVQLVESGGGLVQPGGSLRLSCAVSGIDLSHDDISWVRQAPGKGLEWVSIISYAGSTYYASWAKGRLTISKDTSKNQVVLTMTNMDPVDTATYYCARGVPAYSHGGDLWGQGTLVTVSSASTKGPSVFPLAPSSKSTSGGTAALGCLVKDYFPEPVTVSWNSGALTSGVHTFPAVLQSSGLYSLSSVVTVPSSSLGTQTYICNVNHKPSNTKVDKKVEPKSCDKTHTCPPCPAPELLNGPSVFLFPPKPKDTLMISRTPEVTCVVVDVSDEDPEVKFNWYVDGVEVHNAKTKPREELYNSTYRVVSVLTVLHRDWLNGKEYKCKVSNKALPKPIEKTISKAKGQPREPQVYTLPPSREEMTKNQVSLTCLVKGFYPSDIAVEWESNGQPENNYKTTPPVLDSDGSFFLYSKLTVKKSRWQQGNVFSCSVLHEALHAHTTRKELSLSP light: DIVMTQSPATLSLSPGERATLSCTTSQSVYHENWLSWFQQKPGQPPKLLIYWASTLAYGVPSRFSGSGSGTDFTLTISSLQPEDAATYYCAGGYGGGRYAFGQGTKVEIKRTVAAPSVFIFPPSDEQLKSGTASVVCLLNNFYPREAKVQWKVDNALQSGNSQESVTEQDSKDSTYSLSSTLTLSKADYEKHKVYACEVTHQGLSSPVTKSFNRGEC
2 | – | – | 0.17 fold | 3500 nM | 1100 nM | 1700 nM | 1.8 fold | 2800 nM | – | – | – | M103205H795-MY172/M103202L889-SK1 (antibody, human IgG1, kappa, name in EU numbering, EU numbering) heavy: QVTLKESGPVLVKPTETLTLTCTVSGIDLSHDDISWVRQAPGKGLEWVGIISYAGSTYYASWAKGRLTISKDTSKNQVVLTMTNMDPVDTATYYCARGVPAYSHGGDLWGQGTLVTVSSASTKGPSVFPLAPSSKSTSGGTAALGCLVKDYFPEPVTVSWNSGALTSGVHTFPAVLQSSGLYSLSSVVTVPSSSLGTQTYICNVNHKPSNTKVDKKVEPKSCDKTHTCPPCPAPELLNGPSVFLFPPKPKDTLMISRTPEVTCVVVDVSEEDPEVKFNWYVDGVEVHNAKTKPREEQYNSTYRVVSVLTVLHQDWLNGKEYKCKVSNKALPAPIEKTISKAKGQPREPQVYTLPPSREEMTKNQVSLTCLVKGFYPSDIAVEWESNGQPENNYKTTPGVLDSDGSFFLYSKLTVDKSRWQQGNVFSCSVMHEALHNHYTQKSLSLSP light: DIVMTQSPATLSLSPGERATLSCTSSQSVYHANWLSWFQQKPGQPPKLLIYWASTLAYGVPSRFSGSGSGTDFTLTISSLQPEDAATYYCAGGYGGGRYAFGQGTKVEIKRTVAAPSVFIFPPSDEQLKSGTASVVCLLNNFYPREAKVQWKVDNALQSGNSQESVTEQDSKDSTYSLSSTLTLSKADYEKHKVYACEVTHQGLSSPVTKSFNRGEC
3 | – | – | 0.17 fold | 3000 nM | – | – | – | – | 1300 nM | 0.6 fold | 0.15 fold | M103205H795-MY178/M103202L889-SK1 (antibody, human IgG1, kappa, name in EU numbering, EU numbering) heavy: QVTLKESGPVLVKPTETLTLTCTVSGIDLSHDDISWVRQAPGKGLEWVGIISYAGSTYYASWAKGRLTISKDTSKNQVVLTMTNMDPVDTATYYCARGVPAYSHGGDLWGQGTLVTVSSASTKGPSVFPLAPSSKSTSGGTAALGCLVKDYFPEPVTVSWNSGALTSGVHTFPAVLQSSGLYSLSSVVTVPSSSLGTQTYICNVNHKPSNTKVDKKVEPKSCDKTHTCPPCPAPELLNGPSVFLFPPKPKDTLMISRTPEVTCVVVDVSEEDPEVKFNWYVDGVEVHNAKTKPREEQYNSTYRVVSVLTVLHQDWLNGKEYKCKVSNKALPAPIEKTISKAKGQPREPQVYTLPPSREEMTKNQVSLTCLVKGFYPSDIAVEWESNGQPENNYKTTPQVLDSDGSFFLYSKLTVDKSRWQQGNVFSCSVMHEALHNHYTQKSLSLSP light: DIVMTQSPATLSLSPGERATLSCTSSQSVYHANWLSWFQQKPGQPPKLLIYWASTLAYGVPSRFSGSGSGTDFTLTISSLQPEDAATYYCAGGYGGGRYAFGQGTKVEIKRTVAAPSVFIFPPSDEQLKSGTASVVCLLNNFYPREAKVQWKVDNALQSGNSQESVTEQDSKDSTYSLSSTLTLSKADYEKHKVYACEVTHQGLSSPVTKSFNRGEC
